Reference: article PMC12713080

B1: HA‐TAK1 [human] / Flag‐TRAF2 [not stated] (parent)
chain 1: MSTASAASSSSSSSAGEMIEAPSQVLNFEEIDYKEIEVEEVVGRGAFGVVCKAKWRAKDVAIKQIESESERKAFIVELRQLSRVNHPNIVKLYGACLNPVCLVMEYAEGGSLYNVLHGAEPLPYYTAAHAMSWCLQCSQGVAYLHSMQPKALIHRDLKPPNLLLVAGGTVLKICDFGTACDIQTHMTNNKGSAAWMAPEVFEGSNYSEKCDVFSWGIILWEVITRRKPFDEIGGPAFRIMWAVHNGTRPPLIKNLPKPIESLMTRCWSKDPSQRPSMEEIVKIMTHLMRYFPGADEPLQYPCQYSDEGQSNSATSTGSFMDIASTNTSNKSDTNMEQVPATNDTIKRLESKLLKNQAKQQSESGRLSLGASRGSSVESLPPTSEGKRMSADMSEIEARIAATTAYSKPKRGHRKTASFGNILDVPEIVISGNGQPRRRSIQDLTVTGTEPGQVSSRSSSPSVRMITTSGPTSEKPTRSHPWTPDDSTDTNGSDNSIPMAYLTLDHQLQPLAPCPNSKESMAVFEQHCKMAQEYMKVQTEIALLLQRKQELVAELDQDEKDQQNTSRLVQEHKKLLDENKSLSTYYQQCKKQLEVIRSQQQKRQGTS
chain 2: MAAASVTPPGSLELLQPGFSKTLLGTKLEAKYLCSACRNVLRRPFQAQCGHRYCSFCLASILSSGPQNCAACVHEGIYEEGISILESSSAFPDNAARREVESLPAVCPSDGCTWKGTLKEYESCHEGRCPLMLTECPACKGLVRLGEKERHLEHECPERSLSCRHCRAPCCGADVKAHHEVCPKFPLTCDGCGKKKIPREKFQDHVKTCGKCRVPCRFHAIGCLETVEGEKQQEHEVQWLREHLAMLLSSVLEAKPLLGDQSHAGSELLQRCESLEKKTATFENIVCVLNREVERVAMTAEACSRQHRLDQDKIEALSSKVQQLERSIGLKDLAMADLEQKVLEMEASTYDGVFIWKISDFARKRQEAVAGRIPAIFSPAFYTSRYGYKMCLRIYLNGDGTGRGTHLSLFFVVMKGPNDALLRWPFNQKVTLMLLDQNNREHVIDAFRPDVTSSSFQRPVNDMNIASGCPLFCPVSKMEAKNSYVRDDAIFIKAIVDLTGL

Variants of: B1
Experiment: co-immunoprecipitation (anti-HA beads), IB quantified
Conditions: with Flag‐TRAF2; HEK293T cells cotransfected; mean+/-SD, n = 3; read off a plot

Row | response | Variant
1 | 0.25 | chain 1 H154A M196A
